Numbered stars: 1 amine (or outer) side, 2 acyl side, 3 side chain; on linkers, the order of the positions; unused ones are H or OH. Square brackets hold non-standard residues; d marks the D form. Side chains are listed from the residue outwards. Ends that are not written are not given here. * marks the point of attachment. C20 diacid = O=C(O)CCCCCCCCCCCCCCCCCCC(=O)*; γGlu = O=C(O)[C@H](CCC(=O)[*:2])N[*:1]; AEEA = NCCOCCOCC(=O)O; Aib = CC(C)(N)C(=O)O
Assays:
[1] = target: T1, human GIP receptor (human, UniProt P48546 22-466); assay: cell-based or functional assay
T1 sequence (looked up): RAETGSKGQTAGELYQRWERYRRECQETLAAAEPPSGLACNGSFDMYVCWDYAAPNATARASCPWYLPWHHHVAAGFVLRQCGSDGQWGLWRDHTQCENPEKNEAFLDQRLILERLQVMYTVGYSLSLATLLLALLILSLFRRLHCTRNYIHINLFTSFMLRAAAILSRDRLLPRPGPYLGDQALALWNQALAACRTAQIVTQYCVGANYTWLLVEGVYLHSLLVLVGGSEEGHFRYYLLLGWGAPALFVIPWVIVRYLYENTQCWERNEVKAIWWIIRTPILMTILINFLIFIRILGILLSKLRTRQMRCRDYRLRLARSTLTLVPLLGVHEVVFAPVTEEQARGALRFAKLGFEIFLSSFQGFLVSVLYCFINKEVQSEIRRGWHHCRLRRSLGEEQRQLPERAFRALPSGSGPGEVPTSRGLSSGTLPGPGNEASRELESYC

[2] = target: human GLP-1 receptor (human, UniProt P43220 24-463); assay: cell-based or functional assay

Question: H[Aib]EGTFTSDYSILLDKKAQ[Aib]AFIEYLLE[Aib]GPSSGAPPPS-NH2 (not fully specified (residue 17)) [Example 15] was tested. Which “hGIPR cAMP EC50 ratio” value [1] did it give?
Answer: 0.273

Question: And the “hGIPR cAMP Rel EC50” value [1]?
Answer: 0.613 nM

Question: And the “hGLP1R cAMP EC50 ratio” value [2]?
Answer: 1.65

Question: What about the “hGLP1R cAMP Rel EC50” value [2] of the same binder?
Answer: 0.0336 nM

B1: Example 12 (peptide)
peptide: Y[Aib]EGTFTSDYSILLDKIAQK([AEEA-AEEA-γGlu-C20 diacid])AFIEYLIEGGPSSGAPPPS-NH2
modifications: N-terminus assumed
SMILES: CC[C@H](C)[C@H](NC(=O)[C@H](CCCCN)NC(=O)[C@H](CC(=O)O)NC(=O)[C@H](CC(C)C)NC(=O)[C@H](CC(C)C)NC(=O)[C@@H](NC(=O)[C@H](CO)NC(=O)[C@H](Cc1ccc(O)cc1)NC(=O)[C@H](CC(=O)O)NC(=O)[C@H](CO)NC(=O)[C@@H](NC(=O)[C@H](Cc1ccccc1)NC(=O)[C@@H](NC(=O)CNC(=O)[C@H](CCC(=O)O)NC(=O)C(C)(C)NC(=O)[C@@H](N)Cc1ccc(O)cc1)[C@@H](C)O)[C@@H](C)O)[C@@H](C)CC)C(=O)N[C@@H](C)C(=O)N[C@@H](CCC(N)=O)C(=O)N[C@@H](CCCCNC(=O)COCCOCCNC(=O)COCCOCCNC(=O)CC[C@H](NC(=O)CCCCCCCCCCCCCCCCCCC(=O)O)C(=O)O)C(=O)N[C@@H](C)C(=O)N[C@@H](Cc1ccccc1)C(=O)N[C@H](C(=O)N[C@@H](CCC(=O)O)C(=O)N[C@@H](Cc1ccc(O)cc1)C(=O)N[C@@H](CC(C)C)C(=O)N[C@H](C(=O)N[C@@H](CCC(=O)O)C(=O)NCC(=O)NCC(=O)N1CCC[C@H]1C(=O)N[C@@H](CO)C(=O)N[C@@H](CO)C(=O)NCC(=O)N[C@@H](C)C(=O)N1CCC[C@H]1C(=O)N1CCC[C@H]1C(=O)N1CCC[C@H]1C(=O)N[C@@H](CO)C(N)=O)[C@@H](C)CC)[C@@H](C)CC
Question: Which “hGIPR cAMP EC50 ratio” value [1] does the source give for B1 here?
Answer: 0.659

Question: What about the “hGIPR cAMP Rel EC50” value [1] of the same binder?
Answer: 0.3 nM

Question: What about the “hGLP1R cAMP EC50 ratio” value [2] of the same binder?
Answer: 0.0603

Question: And the “hGLP1R cAMP Rel EC50” value [2]?
Answer: 1.15 nM

Question: Which results are given for Y[Aib]EGTFTSDYSILLDKIAQKEFIQYLLE[Aib]GPSSGAPPPS-NH2 (not fully specified (residue 20)) [Example 14]?
Answer: hGIPR cAMP EC50 ratio [1]: 0.545; hGIPR cAMP Rel EC50 [1]: 0.284 nM; hGLP1R cAMP EC50 ratio [2]: 0.0306; hGLP1R cAMP Rel EC50 [2]: 1.87 nM

B2: Example 9 (peptide)
peptide: Y[Aib]EGTFTSDYSILLDSK([AEEA-AEEA-γGlu-C20 diacid])AQ[Aib]AFIEYLIEGGPSSGAPPPS-NH2
modifications: N-terminus assumed
SMILES: CC[C@H](C)[C@H](NC(=O)[C@H](CC(C)C)NC(=O)[C@H](Cc1ccc(O)cc1)NC(=O)[C@H](CCC(=O)O)NC(=O)[C@@H](NC(=O)[C@H](Cc1ccccc1)NC(=O)[C@H](C)NC(=O)C(C)(C)NC(=O)[C@H](CCC(N)=O)NC(=O)[C@H](C)NC(=O)[C@H](CCCCNC(=O)COCCOCCNC(=O)COCCOCCNC(=O)CC[C@H](NC(=O)CCCCCCCCCCCCCCCCCCC(=O)O)C(=O)O)NC(=O)[C@H](CO)NC(=O)[C@H](CC(=O)O)NC(=O)[C@H](CC(C)C)NC(=O)[C@H](CC(C)C)NC(=O)[C@@H](NC(=O)[C@H](CO)NC(=O)[C@H](Cc1ccc(O)cc1)NC(=O)[C@H](CC(=O)O)NC(=O)[C@H](CO)NC(=O)[C@@H](NC(=O)[C@H](Cc1ccccc1)NC(=O)[C@@H](NC(=O)CNC(=O)[C@H](CCC(=O)O)NC(=O)C(C)(C)NC(=O)[C@@H](N)Cc1ccc(O)cc1)[C@@H](C)O)[C@@H](C)O)[C@@H](C)CC)[C@@H](C)CC)C(=O)N[C@@H](CCC(=O)O)C(=O)NCC(=O)NCC(=O)N1CCC[C@H]1C(=O)N[C@@H](CO)C(=O)N[C@@H](CO)C(=O)NCC(=O)N[C@@H](C)C(=O)N1CCC[C@H]1C(=O)N1CCC[C@H]1C(=O)N1CCC[C@H]1C(=O)N[C@@H](CO)C(N)=O
Question: What does the source list for B2?
Answer: hGIPR cAMP EC50 ratio [1]: 0.768; hGIPR cAMP Rel EC50 [1]: 0.21 nM; hGLP1R cAMP EC50 ratio [2]: 0.314; hGLP1R cAMP Rel EC50 [2]: 0.194 nM

B3: Example 11 (peptide)
peptide: Y[Aib]EGTFTSDYSILLDSIAQ[Aib]AFIEYLLK([AEEA-AEEA-γGlu-C20 diacid])[Aib]GPSSGAPPPS-NH2
modifications: N-terminus assumed
SMILES: CC[C@H](C)[C@H](NC(=O)[C@H](CO)NC(=O)[C@H](CC(=O)O)NC(=O)[C@H](CC(C)C)NC(=O)[C@H](CC(C)C)NC(=O)[C@@H](NC(=O)[C@H](CO)NC(=O)[C@H](Cc1ccc(O)cc1)NC(=O)[C@H](CC(=O)O)NC(=O)[C@H](CO)NC(=O)[C@@H](NC(=O)[C@H](Cc1ccccc1)NC(=O)[C@@H](NC(=O)CNC(=O)[C@H](CCC(=O)O)NC(=O)C(C)(C)NC(=O)[C@@H](N)Cc1ccc(O)cc1)[C@@H](C)O)[C@@H](C)O)[C@@H](C)CC)C(=O)N[C@@H](C)C(=O)N[C@@H](CCC(N)=O)C(=O)NC(C)(C)C(=O)N[C@@H](C)C(=O)N[C@@H](Cc1ccccc1)C(=O)N[C@H](C(=O)N[C@@H](CCC(=O)O)C(=O)N[C@@H](Cc1ccc(O)cc1)C(=O)N[C@@H](CC(C)C)C(=O)N[C@@H](CC(C)C)C(=O)N[C@@H](CCCCNC(=O)COCCOCCNC(=O)COCCOCCNC(=O)CC[C@H](NC(=O)CCCCCCCCCCCCCCCCCCC(=O)O)C(=O)O)C(=O)NC(C)(C)C(=O)NCC(=O)N1CCC[C@H]1C(=O)N[C@@H](CO)C(=O)N[C@@H](CO)C(=O)NCC(=O)N[C@@H](C)C(=O)N1CCC[C@H]1C(=O)N1CCC[C@H]1C(=O)N1CCC[C@H]1C(=O)N[C@@H](CO)C(N)=O)[C@@H](C)CC
Question: How did the “hGIPR cAMP EC50 ratio” value [1] turn out when B3 was run?
Answer: 0.399

Question: And the “hGIPR cAMP Rel EC50” value [1]?
Answer: 0.486 nM

Question: And the “hGLP1R cAMP EC50 ratio” value [2]?
Answer: 0.0111

Question: And the “hGLP1R cAMP Rel EC50” value [2]?
Answer: 6.89 nM

B4: Example 10 (peptide)
peptide: Y[Aib]EGTFTSDYSILLDSIAQ[Aib]AFIK([AEEA-AEEA-γGlu-C20 diacid])YLLA[Aib]GPSSGAPPPS-NH2
modifications: N-terminus assumed
SMILES: CC[C@H](C)[C@H](NC(=O)[C@H](CO)NC(=O)[C@H](CC(=O)O)NC(=O)[C@H](CC(C)C)NC(=O)[C@H](CC(C)C)NC(=O)[C@@H](NC(=O)[C@H](CO)NC(=O)[C@H](Cc1ccc(O)cc1)NC(=O)[C@H](CC(=O)O)NC(=O)[C@H](CO)NC(=O)[C@@H](NC(=O)[C@H](Cc1ccccc1)NC(=O)[C@@H](NC(=O)CNC(=O)[C@H](CCC(=O)O)NC(=O)C(C)(C)NC(=O)[C@@H](N)Cc1ccc(O)cc1)[C@@H](C)O)[C@@H](C)O)[C@@H](C)CC)C(=O)N[C@@H](C)C(=O)N[C@@H](CCC(N)=O)C(=O)NC(C)(C)C(=O)N[C@@H](C)C(=O)N[C@@H](Cc1ccccc1)C(=O)N[C@H](C(=O)N[C@@H](CCCCNC(=O)COCCOCCNC(=O)COCCOCCNC(=O)CC[C@H](NC(=O)CCCCCCCCCCCCCCCCCCC(=O)O)C(=O)O)C(=O)N[C@@H](Cc1ccc(O)cc1)C(=O)N[C@@H](CC(C)C)C(=O)N[C@@H](CC(C)C)C(=O)N[C@@H](C)C(=O)NC(C)(C)C(=O)NCC(=O)N1CCC[C@H]1C(=O)N[C@@H](CO)C(=O)N[C@@H](CO)C(=O)NCC(=O)N[C@@H](C)C(=O)N1CCC[C@H]1C(=O)N1CCC[C@H]1C(=O)N1CCC[C@H]1C(=O)N[C@@H](CO)C(N)=O)[C@@H](C)CC
Question: For B4, which “hGIPR cAMP EC50 ratio” value [1] is on record?
Answer: 0.151

Question: And the “hGIPR cAMP Rel EC50” value [1]?
Answer: 1.28 nM

Question: And the “hGLP1R cAMP EC50 ratio” value [2]?
Answer: 0.00912

Question: What about the “hGLP1R cAMP Rel EC50” value [2] of the same binder?
Answer: 7.64 nM

B5: Example 13 (peptide)
peptide: Y[Aib]EGTFTSDYSILLD[Aib]IAQK([AEEA-AEEA-γGlu-C20 diacid])AFIEYLIEGGPSSGAPPPS-NH2
modifications: N-terminus assumed
SMILES: CC[C@H](C)[C@H](NC(=O)[C@H](CC(C)C)NC(=O)[C@H](Cc1ccc(O)cc1)NC(=O)[C@H](CCC(=O)O)NC(=O)[C@@H](NC(=O)[C@H](Cc1ccccc1)NC(=O)[C@H](C)NC(=O)[C@H](CCCCNC(=O)COCCOCCNC(=O)COCCOCCNC(=O)CC[C@H](NC(=O)CCCCCCCCCCCCCCCCCCC(=O)O)C(=O)O)NC(=O)[C@H](CCC(N)=O)NC(=O)[C@H](C)NC(=O)[C@@H](NC(=O)C(C)(C)NC(=O)[C@H](CC(=O)O)NC(=O)[C@H](CC(C)C)NC(=O)[C@H](CC(C)C)NC(=O)[C@@H](NC(=O)[C@H](CO)NC(=O)[C@H](Cc1ccc(O)cc1)NC(=O)[C@H](CC(=O)O)NC(=O)[C@H](CO)NC(=O)[C@@H](NC(=O)[C@H](Cc1ccccc1)NC(=O)[C@@H](NC(=O)CNC(=O)[C@H](CCC(=O)O)NC(=O)C(C)(C)NC(=O)[C@@H](N)Cc1ccc(O)cc1)[C@@H](C)O)[C@@H](C)O)[C@@H](C)CC)[C@@H](C)CC)[C@@H](C)CC)C(=O)N[C@@H](CCC(=O)O)C(=O)NCC(=O)NCC(=O)N1CCC[C@H]1C(=O)N[C@@H](CO)C(=O)N[C@@H](CO)C(=O)NCC(=O)N[C@@H](C)C(=O)N1CCC[C@H]1C(=O)N1CCC[C@H]1C(=O)N1CCC[C@H]1C(=O)N[C@@H](CO)C(N)=O
Question: How did the “hGIPR cAMP EC50 ratio” value [1] turn out when B5 was run?
Answer: 0.18

Question: What about the “hGIPR cAMP Rel EC50” value [1] of the same binder?
Answer: 1.05 nM

Question: And the “hGLP1R cAMP EC50 ratio” value [2]?
Answer: 0.0133

Question: And the “hGLP1R cAMP Rel EC50” value [2]?
Answer: 5.39 nM
